Assay results published in US20100173362A1 (published 2010).

B1: 2B8 (antibody, mouse IgG1, kappa)
heavy: QVQLQQPGAELVKPGTSVKLSCKASGYTFTTYWMHWVNQRPGQGLEWIGEINPTNGHTNYNEKFKSKATLTVDKSSSTAYMQLSSLTSEDSAVYYCARNYVGSIFDYWGQGTTLTVSSAKTTPPSVYPLAPGSAAQTNSMVTLGCLVKGYFPEPVTVTWNSGSLSSGVHTFPAVLQSDLYTLSSSVTVPSSTWPSETVTCNVAHPASSTKVDKKIVPRDCGCKPCICTVPEVSSVFIFPPKPKDVLTITLTPKVTCVVVDISKDDPEVQFSWFVDDVEVHTAQTQPREEQFNSTFRSVSELPIMHQDWLNGKEFKCRVNSAAFPAPIEKTISKTKGRPKAPQVYTIPPPKEQMAKDKVSLTCMITDFFPEDITVEWQWNGQPAENYKNTQPIMDTDGSYFVYSKLNVQKSNWEAGNTFTCSVLHEGLHNHHTEKSLSHSPGK
light: NIVMTQSPKSMSMSVGERVTLSCKASENVVSYVSWYQQKPAQSPKLLIYGASNRNTGVPDRFTGSGSATDFTLTISSVRAEDLADYHCGQSYNYPYTFGGGTRLEIKRADAAPTVSIFPPSSEQLTSGGASVVCFLNNFYPKDINVKWKIDGSERQNGVLNSWTDQDSKDSTYSMSSTLTLTKDEYERHNSYTCEATHKTSTSPIVKSFNRNEC
notes: also called murine 2B8; mouse 2B8
B2: HE2B8-1 (antibody, human IgG1, kappa, V domains shown)
VH: QVQLVQPGAEVVKPGTSVKLSCKASGYTFTTYWMHWVNQAPGQGLEWIGEINPTNGHTNYNEKFKGKATLTVDKSTSTAYMELSSLRSEDTAVYYCARNYVGSIFDYWGQGTLLTVSS
VL: DIVMTQSPDSMAMSVGERVTLNCKASENVVSYVSWYQQKPGQSPKLLIYGASNRNTGVPDRFSGSGSATDFTLTISSVQAEDVADYHCGQSYNYPYTFGQGTKLEIKR
B3: HE2B8-4 (antibody, human IgG1, kappa, V domains shown)
VH: QVQLVQPGAEVKKPGTSVKLSCKASGYTFTTYWMHWVRQAPGQGLEWIGEINPTNGHTNYNQKFQGRATLTVDKSTSTAYMELSSLRSEDTAVYYCARNYVGSIFDYWGQGTLLTVSS
VL: DIVMTQSPDSLAMSLGERVTLNCKASENVVSYVSWYQQKPGQSPKLLIYGASNRESGVPDRFSGSGSATDFTLTISSVQAEDVADYHCGQSYNYPYTFGQGTKLEIKR
B4: HE2B8-2 (antibody, human IgG1, kappa, V domains shown)
VH: QVQLVQPGAEVVKPGTSVKLSCKASGYTFTTYWMHWVNQAPGQGLEWIGEINPTNGHTNYNEKFKGKATLTVDKSTSTAYMELSSLRSEDTAVYYCARNYVGSIFDYWGQGTLLTVSS
VL: DIVMTQSPDSLAMSLGERVTLNCKASENVVSYVSWYQQKPGQSPKLLIYGASNRESGVPDRFSGSGSATDFTLTISSVQAEDVADYHCGQSYNYPYTFGQGTKLEIKR
B5: HE2B8-3 (antibody, human IgG1, kappa, V domains shown)
VH: QVQLVQPGAEVKKPGTSVKLSCKASGYTFTTYWMHWVRQAPGQGLEWIGEINPTNGHTNYNQKFQGRATLTVDKSTSTAYMELSSLRSEDTAVYYCARNYVGSIFDYWGQGTLLTVSS
VL: DIVMTQSPDSMAMSVGERVTLNCKASENVVSYVSWYQQKPGQSPKLLIYGASNRNTGVPDRFSGSGSATDFTLTISSVQAEDVADYHCGQSYNYPYTFGQGTKLEIKR
B6: sh2B8-9 (G1m(3)) (antibody, human IgG1, kappa)
heavy: not shown
light: DIQMTQSPSSLSASVGDRVTITCKASENVVSYVSWYQQKPGKAPKLLIYGASNRNTGVPSRFSGSGSGTDFTLTISSLQPEDFATYYCGQSYNYPYTFGQGTKLEIKRTVAAPSVFIFPPSDEQLKSGTASVVCLLNNFYPREAKVQWKVDNALQSGNSQESVTEQDSKDSTYSLSSTLTLSKADYEKHKVYACEVTHQGLSSPVTKSFNRGEC
notes: superhumanized 2B8, human IgG1 G1m(3) allotype (allele 2), kappa Km(3) (allele 2), made in 293T cells

Key:
[1] = molecular target: T1, recombinant human HGF (R&D Systems, Catalog No. 294-HGN-025) (human, UniProt P14210 32-728); experiment: cell-based or functional assay
[2] = molecular target: T1, recombinant human HGF (R&D Systems, …); experiment: SPR (BIAcore), KD at 25 C against KD at 37 C; upper end fits 2B8 in Table 19
Experimental: (§1) The antibodies were captured in an individual flow cell at a flow rate of 10 μL/min. Injection time was variable for each antibody to yield approximately 20 RU of antibody captured for each cycle. […] The dissociation phase was monitored for 15 or 90 minutes, depending on concentration. The surface of mouse anti-human immunoglobulins sensor chips was then regenerated with 10 mM Glycine-HCl, pH 2.2 (BIAcore, Catalog No. BR-1003-54) injected for 3 minutes at a flow rate of 60 μL/min before another cycle was initiated. The surface of rabbit anti-mouse immunoglobulins sensor chips was regenerated with 10 mM Glycine-HCl, pH 1.7 (BIAcore, Catalog No. BR-1003-54) injected for 3 minutes at a flow rate of 60 μL/min before another cycle was initiated.

[3] = molecular target: T1, recombinant human HGF (R&D Systems, …); experiment: SPR (BIAcore), KD at 25 C against KD at 37 C; lower end fits sh2B8-9 in Table 19
Experimental: as §1

T1 sequence (P14210 32-728 limits assumed): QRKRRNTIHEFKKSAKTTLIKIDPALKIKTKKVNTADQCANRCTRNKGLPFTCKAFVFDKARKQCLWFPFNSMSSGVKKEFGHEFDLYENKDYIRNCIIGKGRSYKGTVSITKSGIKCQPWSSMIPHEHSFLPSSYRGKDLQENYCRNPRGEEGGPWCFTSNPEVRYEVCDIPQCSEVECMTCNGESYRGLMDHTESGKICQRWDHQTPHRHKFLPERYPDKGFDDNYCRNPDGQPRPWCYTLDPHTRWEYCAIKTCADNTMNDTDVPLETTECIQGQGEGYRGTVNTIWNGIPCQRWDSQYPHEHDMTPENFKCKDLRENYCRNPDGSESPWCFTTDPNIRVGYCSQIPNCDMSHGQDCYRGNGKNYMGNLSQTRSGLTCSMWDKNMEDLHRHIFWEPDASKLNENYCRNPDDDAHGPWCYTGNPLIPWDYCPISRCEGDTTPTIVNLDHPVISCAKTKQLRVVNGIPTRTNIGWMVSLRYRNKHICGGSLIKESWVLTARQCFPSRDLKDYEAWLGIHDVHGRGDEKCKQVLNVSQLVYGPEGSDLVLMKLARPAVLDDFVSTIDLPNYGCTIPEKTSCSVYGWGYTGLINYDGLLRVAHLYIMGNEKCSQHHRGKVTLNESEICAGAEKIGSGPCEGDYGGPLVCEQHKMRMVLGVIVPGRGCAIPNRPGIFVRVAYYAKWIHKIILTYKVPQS

Binder	HGF-stimulated c-Met phosphorylation in PC-3 cells, Average of Two Trials [1] [nM]	fold smaller KD at 37° C. than at 25° C. [2] [fold]	fold smaller KD at 37° C. than at 25° C. [3] [fold]
B1	0.91	1.4 to 3	
B2	0.8		
B3	0.75		
B4	0.88		
B5	0.79		
B6	0.93		1.4 to 3
